In IntAct's records for PubMed 21282611:

B1: WD-40 repeat-containing protein MSI4 (Arabidopsis thaliana (Mouse-ear cress)), O22607 (parent)
chain: MESDEAAAVSPQATTPSGGTGASGPKKRGRKPKTKEDSQTPSSQQQSDVKMKESGKKTQQSPSVDEKYSQWKGLVPILYDWLANHNLVWPSLSCRWGPQLEQATYKNRQRLYLSEQTDGSVPNTLVIANCEVVKPRVAAAEHISQFNEEARSPFVKKYKTIIHPGEVNRIRELPQNSKIVATHTDSPDVLIWDVETQPNRHAVLGAANSRPDLILTGHQDNAEFALAMCPTEPFVLSGGKDKSVVLWSIQDHITTIGTDSKSSGSIIKQTGEGTDKNESPTVGPRGVYHGHEDTVEDVAFSPTSAQEFCSVGDDSCLILWDARTGTNPVTKVEKAHDADLHCVDWNPHDDNLILTGSADNTVRLFDRRKLTANGVGSPIYKFEGHKAAVLCVQWSPDKSSVFGSSAEDGLLNIWDYDRVSKKSDRAAKSPAGLFFQHAGHRDKVVDFHWNASDPWTIVSVSDDCETTGGGGTLQIWRMSDLIYRPEEEVVAELEKFKSHVMTCASKP
partner: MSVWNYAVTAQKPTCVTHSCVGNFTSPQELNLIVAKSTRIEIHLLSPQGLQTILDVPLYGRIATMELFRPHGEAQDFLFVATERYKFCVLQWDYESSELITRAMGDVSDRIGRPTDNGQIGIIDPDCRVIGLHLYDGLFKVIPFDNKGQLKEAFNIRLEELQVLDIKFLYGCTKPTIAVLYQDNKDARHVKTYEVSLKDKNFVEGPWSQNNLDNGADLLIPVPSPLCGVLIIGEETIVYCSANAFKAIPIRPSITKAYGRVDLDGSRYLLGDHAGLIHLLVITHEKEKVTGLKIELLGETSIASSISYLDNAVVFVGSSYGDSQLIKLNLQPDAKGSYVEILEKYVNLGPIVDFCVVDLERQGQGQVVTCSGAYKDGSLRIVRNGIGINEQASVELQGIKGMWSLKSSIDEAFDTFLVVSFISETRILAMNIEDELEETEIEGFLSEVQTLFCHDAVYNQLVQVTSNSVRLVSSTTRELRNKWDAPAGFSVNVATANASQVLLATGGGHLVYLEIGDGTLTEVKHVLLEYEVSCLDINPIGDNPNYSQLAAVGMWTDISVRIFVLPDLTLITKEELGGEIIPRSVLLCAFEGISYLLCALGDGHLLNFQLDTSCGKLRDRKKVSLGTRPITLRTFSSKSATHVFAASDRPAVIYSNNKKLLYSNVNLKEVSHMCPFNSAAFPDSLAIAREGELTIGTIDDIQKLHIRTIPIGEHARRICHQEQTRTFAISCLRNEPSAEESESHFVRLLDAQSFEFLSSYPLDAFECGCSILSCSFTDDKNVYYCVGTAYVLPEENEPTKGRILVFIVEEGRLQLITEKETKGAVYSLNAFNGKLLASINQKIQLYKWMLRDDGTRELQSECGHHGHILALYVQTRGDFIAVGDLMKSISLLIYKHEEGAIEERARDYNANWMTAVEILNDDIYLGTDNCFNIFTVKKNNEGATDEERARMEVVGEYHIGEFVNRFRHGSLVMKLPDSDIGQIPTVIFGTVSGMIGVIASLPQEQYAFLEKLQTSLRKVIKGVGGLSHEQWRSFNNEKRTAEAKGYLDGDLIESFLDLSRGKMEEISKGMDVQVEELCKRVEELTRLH
B2: WD-40 repeat-containing protein MSI4 (Arabidopsis thaliana (Mouse-ear cress)), O22607 (parent)
chain: B1 chain
partner: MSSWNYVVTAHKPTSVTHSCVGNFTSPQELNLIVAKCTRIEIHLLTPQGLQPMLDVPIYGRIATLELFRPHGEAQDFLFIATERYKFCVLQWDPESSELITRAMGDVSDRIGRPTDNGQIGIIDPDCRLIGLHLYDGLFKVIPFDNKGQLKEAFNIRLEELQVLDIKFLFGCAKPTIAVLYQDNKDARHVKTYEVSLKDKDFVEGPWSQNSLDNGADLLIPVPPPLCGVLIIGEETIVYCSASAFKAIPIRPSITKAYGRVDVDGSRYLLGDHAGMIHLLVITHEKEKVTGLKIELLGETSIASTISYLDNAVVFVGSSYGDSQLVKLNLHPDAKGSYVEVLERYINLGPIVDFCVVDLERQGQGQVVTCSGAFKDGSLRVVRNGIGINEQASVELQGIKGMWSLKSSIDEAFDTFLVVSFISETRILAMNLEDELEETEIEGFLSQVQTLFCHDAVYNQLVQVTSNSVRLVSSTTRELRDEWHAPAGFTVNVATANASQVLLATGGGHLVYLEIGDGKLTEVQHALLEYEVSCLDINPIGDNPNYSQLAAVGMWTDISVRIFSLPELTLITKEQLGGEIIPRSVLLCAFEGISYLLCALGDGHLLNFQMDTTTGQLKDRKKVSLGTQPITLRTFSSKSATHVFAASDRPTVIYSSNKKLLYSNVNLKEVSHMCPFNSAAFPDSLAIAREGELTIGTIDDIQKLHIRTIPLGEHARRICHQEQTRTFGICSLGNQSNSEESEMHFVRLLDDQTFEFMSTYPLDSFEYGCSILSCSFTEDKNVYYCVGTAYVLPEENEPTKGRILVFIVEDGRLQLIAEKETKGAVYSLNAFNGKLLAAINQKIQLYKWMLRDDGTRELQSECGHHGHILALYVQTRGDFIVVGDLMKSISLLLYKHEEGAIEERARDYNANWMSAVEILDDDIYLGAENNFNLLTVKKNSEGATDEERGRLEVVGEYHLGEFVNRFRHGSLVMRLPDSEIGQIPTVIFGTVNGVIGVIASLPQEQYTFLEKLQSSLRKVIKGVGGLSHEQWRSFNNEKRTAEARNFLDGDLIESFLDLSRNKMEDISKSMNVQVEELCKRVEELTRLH

Variants of: B1
Conditions: with ddb1b_arath DDB1B

Row | effect of a mutation on the interaction | Variant
1 | decreasing interaction strength | R323H

Variants of: B2
Conditions: with ddb1a_arath DDB1A

Row | effect of a mutation on the interaction | Variant
2 | decreasing interaction strength | R323H
